Test results published in US20230192831A1.

Legend:
[1] = biological target: recombinant human GREM1 (hGREM1-His; C-terminal 10His tagged, R&D, #5190-GR) (human) (UniProt O60565); assay: cell-based or functional assay
[2] = biological target: recombinant human GREM1 (hGREM1-His; C-terminal 10His tagged, R&D, #5190-GR) (human) (UniProt O60565); assay: BLI Octet, captured mAb, 100 nM GREM1
[3] = biological target: recombinant human GREM1 (hGREM1-His; C-terminal 10His tagged, R&D, #5190-GR) (human) (UniProt O60565); assay: BLI Octet, captured mAb, 100 nM GREM1 without vs with 5 uM heparin
[4] = biological target: recombinant human GREM1 (hGREM1-His; C-terminal 10His tagged, R&D, #5190-GR) (human) (UniProt O60565); assay: BLI Octet, captured mAb, 100 nM GREM1 + 5 uM heparin

recombinant human GREM1 (hGREM1-His; C-terminal 10His tagged, R&D, #5190-GR) (human), sequence (O60565 other isoform, or with tags, fused parts or gaps limits assumed, form in doubt): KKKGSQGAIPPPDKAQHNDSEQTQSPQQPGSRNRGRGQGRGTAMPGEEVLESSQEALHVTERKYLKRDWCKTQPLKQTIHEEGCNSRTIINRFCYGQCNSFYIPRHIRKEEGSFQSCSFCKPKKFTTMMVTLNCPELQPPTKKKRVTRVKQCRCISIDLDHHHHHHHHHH

Row | Binder | IC50 [M], W-20-17/BRE-luc luciferase bioassay, 100 pM hBMP4 and 10 nM hGREM1-His [1] | hGREM1-His Inhibition IC50, M; W-20-17 cell differentiation assay (alkaline phosphatase) [1] | Binding Signal with 30 sec Association (nm) [2] | Binding Signal with 300 sec Association (nm) [2] | Reduction in Signal from Heparin at 30 sec [3] | Reduction in Signal from Heparin at 300 sec [3] | Binding Signal with 30 sec Association (nm) [4] | Binding Signal with 300 sec Association (nm) [4]
1 | H4H6248P (antibody, human IgG4, V domains shown) VH: QVQLVESGGGVVQPGRSLRLSCAASGFTFSNYGMHWVRQVPGKGLEWVAVIWYDGSNKYYADSVKGRFTISRDNSKNTLYLQMNSVRAEDTAVYYCARDDYGDSPGFDYWGQGTLVTVSS VL: EIVMTQSPATLSVSPGERATLSCRASQSVSSSLAWYQQKPGQAPRLLIYDASTRATGIPARFSGSGSGTEFTLTISGLQSEDFAVYYCQQYNNWPPWTFGQGTKVEIK | 5.3e-10 M | 5.6 nM | 0.21 nm | 0.42 nm | 0.17 nm | 0.05 nm | 0.04 nm | 0.37 nm
2 | H4H6251P (antibody, human IgG4, V domains shown) VH: QVQLVESGGGVVQPGKSLRLSCAASGFTFSRYGMHWVRQAPGKGLEWVAVIWYDGSNKYYADSVKGRFTISRDNSKNTLYLQMNSLRADDTAMYYCARDDYGDSPGFDFWGQGTLVTVSS VL: EIVMTQSPATLSVSPGERATLSCRASQSVSSNLAWYQQKPGQAPRLLIYDASTRATGIPARFSGTGSGTEFTLTISSLQSEDFALYYCQQYDDWPPWTFGQGTKVEIK | 6.3e-10 M | 11 nM | 0.27 nm | 0.45 nm | 0.24 nm | 0.09 nm | 0.03 nm | 0.36 nm
3 | H4H6250P (antibody, human IgG4, V domains shown) VH: QVQLVESGGGVVQPGRSLRLSCAASGFTFSNYGMHWVRQAPGKGLEWVAVIWYDGSNKYYADSVKGRFTISRDNSRKTLYLQMNSLRAEDTAIYYCTRDDYGDYDYPFDYWGQGTLVTVSS VL: DIQMTQSPSSLSASVGDRVTITCRASQGIRNDLGWYQQKPGKAPKRLIYAASSLQSGVPSRFSGTGSGTEFTLTISSLQPEDFATYYCLQHNSYPPFTFGPGTKVDIK | 4.4e-10 M | 12 nM | 0.2 nm | 0.37 nm | 0.14 nm | 0.05 nm | 0.06 nm | 0.32 nm
4 | H4H6252P (antibody, human IgG4, V domains shown) VH: QVQLVESGGGVVQPGRSLRLSCAASGFTFSNYGMHWVRQAPGRGLEWVAVIWFDGSNKYYADSVKGRFTISRDNSKNTLYLQMNSLRSEDTAVYYCTRDDYGDYDYPFDYWGQGTLVTVSS VL: DIQMTQSPSSLSASVGDRVTITCRASQGIRNDLGWYQQKPGKAPKRLIYAASSLQSGVPSRFSGSGSGTEFTLTISSLQPEDFATYYCLQYNTYPPFTFGPGTKVDIK | 8.2e-10 M | 6.1 nM | 0.23 nm | 0.44 nm | 0.19 nm | 0.09 nm | 0.04 nm | 0.35 nm

The remaining lines, values ahead:

Row | IC50 [M], W-20-17/BRE-luc luciferase bioassay, 100 pM hBMP4 and 10 nM hGREM1-His [1] | hGREM1-His Inhibition IC50, M; W-20-17 cell differentiation assay (alkaline phosphatase) [1] | Binding Signal with 30 sec Association (nm) [2] | Binding Signal with 300 sec Association (nm) [2] | Reduction in Signal from Heparin at 30 sec [3] | Reduction in Signal from Heparin at 300 sec [3] | Binding Signal with 30 sec Association (nm) [4] | Binding Signal with 300 sec Association (nm) [4] | Binder
5 | 5.4e-10 M | 3.1 nM | 0.2 nm | 0.39 nm | 0.15 nm | 0.06 nm | 0.05 nm | 0.33 nm | H4H6270P (antibody, human IgG4, V domains shown) VH: QVQLVESGGDVVQPGRSLRLSCAASGFTFSSYGMHWVRQAPGKGLEWVAIIWNDGSNKYYTDSVKGRFTISRDNSKNTLYLQMNGLRAEDTAIYYCARDQDQFDYWGQGTLVTVSS VL: EIVMTQSPATLSVSPGERATLSCRASQSISTNLAWYRQKPGQAPRLLIYDASTRATGIPARFSGSGSGTDFTLTISSLQSEDFAVYYCQQYSNWPPYTFGQGTKLEIK
6 | 4.6e-10 M | 3.3 nM | 0.24 nm | 0.42 nm | 0.17 nm | 0.05 nm | 0.07 nm | 0.37 nm | H4H6260P (antibody, human IgG4, V domains shown) VH: QVQLVESGGGVVQPGRSLRLSCAASGFTFSTYGMHWVRQAPGKGLEWVAIIWYDGSNYYYADSVKGRFTISRDNSKNTLYLQMNSLRAEDTAVYYCAREDRNDVFDIWGQGTMVTVSS VL: EIVLTQSPATLSLSPGERATLSCRASQSVSSFLAWYQQKPGQAPRLLIYDSSNRATGIPARFSGSGSGTDFTLTISSLEPEDFAVYYCQQLSNWPPITFGQGTRLEIK
